One molecule from US6497872B1, “Neural transplantation using proliferated multipotent neural stem cells and their progeny” (NeuroSpheres Holdings Ltd., priority 1991, dated 2002) can be followed below.

Assay [1] concerns EGF-generated neurospheres. As to the kind of experiment: Effect of growth factors on neurosphere differentiation, immunocytochemistry (Example 8). In kind it is cell-based, mouse. Conditions: paradigm 3; BDNF. As to the method: Six to 8 days after the first passage, the neurospheres were removed and centrifuged at 400 r.p.m. The EGF-containing supernatant was removed and the pellet suspended in EGF-free complete medium containing 1% FBS. Neurospheres (approximately 0.5-1.0×10^6 cells/well) were plated on poly-L-ornithine-coated (15 μg/ml) glass coverslips in 24 well Nuclon (1.0 ml/well) culture dishes. After 24 hours in culture, the coverslips were transferred to 12 well (Costar) culture dishes containing complete medium containing 0.5% FBS. The medium was changed every 4-7 days. This differentiation procedure is referred to as the “Rapid Differentiation Paradigm” or RDP.
Six to 8 days after the first passage, the neurospheres were removed and centrifuged at 400 r.p.m. The EGF-containing media was removed and the pellet was suspended in EGF-free complete medium containing 1% FBS. The neurospheres were mechanically dissociated into single cells with a fire-polished Pasteur pipette and centrifuged at 800 r.p.m. for 5 minutes. Between 0.5×10^6 and 1.0×10^6 cells were plated on poly-L-ornithine-coated (15 μg/ml) glass coverslips in 24 well Nuclon (1.0 ml/well) culture dishes. The EGF-free culture medium containing 1% FBS was changed every 4-7 days.
Neurospheres were washed free of EGF by serial transfers through changes of EGF-free medium. A single neurosphere was plated onto poly-L-ornithine-coated (15 μg/ml) glass coverslips in a 24-well plate. The culture medium used was complete medium with or without I % FBS. The medium was changed every 4-7 days.
Neurospheres were washed free of EGF by serial transfers through changes of EGF-free medium. A single neurosphere was mechanically dissociated in a 0.5 ml Eppendorf centrifuge tube and all the cells were plated onto a 35 mm culture dish. Complete medium was used with or without 1% FBS.
The effects of CNTF, FGF-2, BDNF, and retinoic acid on neurosphere differentiation were tested using the differentiation paradigms set forth in Example 7.
The effect of CNTF was assayed in paradigms 1 and 3. For both paradigms, CNTF was added either at the beginning of the experiment at a concentration of 10 ng/ml or daily at a concentration of 1 ng/ml.
Three different antibodies directed against 04, galactocerebroside (GalC) and MBP were used to study the effect of CNTF on the oligodendrocytes of paradigm 1. CNTF had no effect on the number of 04(+) cells, but there was an increase in the number of GalC(+) and MBP(+) cells compared with the control. Thus it appears that CNTF plays a role in the maturation of oligodendrocytes.
The effect of FGF-2 was tested using paradigms 2 and 4. In paradigm 2, 20 ng/ml of FGF-2 was added at the beginning of the experiment and cells were stained 7 days later. FGF-2 increased the number of GFAP(+) cells and the number of NSE(+) cells.
In paradigm 4, 20 ng/ml of FGF-2 was added at the beginning of the experiment and assayed 7-10 days later. […] It induced two different cell types to divide, neuroblasts and bipotential progenitor cells. The neuroblast produced, on average, 6 neurons while the bipotential cell produced approximately 6 neurons and a number of astrocytes.

Assay [2] concerns EGF-generated mouse neurospheres. As to the kind of experiment: BDNF on single EGF-generated neurospheres (Example 12). The assay is classed as cell-based. Conditions: 10 ng/ml; 14-28 days in vitro; preliminary experiments. As to the method: The expression of the trk family of neurotrophin receptors in EGF-generated neurospheres was examined by northern blot analysis. Total mRNA was isolated from mouse and rat striatal EGF-generated neurospheres. […] In preliminary experiments, single EGF-generated mouse neurospheres were plated on poly-L-ornithine coated glass coverslips and cultured in the absence or presence of 10 ng/ml of BDNF. […] Activation of the trkB receptor on EGF-generated neurospheres may enhance differentiation, survival of and/or neurite outgrowth from newly generated neurons.

Assay [3] deals with EGF-generated precursor cells. As to the kind of experiment: Screening of BDNF on differentiation and survival of stem cell progeny (Example 37). In kind it is cell-based, mouse. As to the method:
Precursor cells were propagated as described in Example 4 and differentiated using Paradigm 3 described in Example 7. At the time of plating the EGF-generated cells, BDNF was added at a concentration of 10 ng/ml. At 3, 7, 14, and 21 days in vitro (DIV), cells were processed for indirect immunocytochemistry. BrdU labeling was used to monitor proliferation of the precursor cells. The effects of BDNF on neurons, oligodendrocytes and astrocytes were assayed by probing the cultures with antibodies that recognize antigens found on neurons (MAP-2, NSE, NF), oligodendrocytes (O4, GalC, MBP) or astrocytes (GFAP). Cell survival was determined by counting the number of immunoreactive cells at each time point and morphological observations were made.
Cells treated with BDNF according to the methods described in Part A were probed with antibodies that recognize neural transmitters or enzymes involved in the synthesis of neural transmitters. These included TH, ChAT, substance P, GABA, somatostatin, and glutamate. In both control and BDNF-treated culture conditions, neurons tested positive for the presence of substance P and GABA.
Cells that are responsive to growth factor treatment were identified by differentiating the EGF-generated progeny as described in Example 7, paradigm 3 and at 1 DIV adding approximately 100 ng/ml of BDNF. At 1, 3, 6, 12 and 24 hours after the addition of BDNF the cells were fixed and processed for dual label immunocytochemistry. Antibodies that recognize neurons (MAP-2, NSE, NF), oligodendrocytes (O4, GalC, MBP) or astrocytes (GFAP) were used in combination with an antibody that recognizes c-fos and/or other immediate early genes.

B1: BDNF: brain-derived neurotrophic factor (protein, UniProt P23560 19-247, looked up)
Neurotrophic factor BDNF …: APMKEANIRGQGGLAYPGVRTHGTLESVNGPKAGSRGLTSLADTFEHVIEELLDEDQKVRPNEENNKDADLYTSRVMLSSQVPLEPPLLFLLEEYKNYLDAANMSMRVRRHSDPARRGELSVCDSISEWVTAADKKTAVDMSGGTVTVLEKVPVSKGQLKQYFYETKCNPMGYTKEGCRGIDKRHWNSQCRTTQSYVRALTMDSKKRIGWRFIRIDTSCVCTLTIKRGR
As for B1, in assay [1], the “neuronal branching and migration of the neurons away from the sphere” value is listed as “increase”; the “number of NSE(+) neurons per neurosphere” value is listed as “increase”. Moreover, the “morphology of NSE(+) cells” value in assay [2] is “NSE(+) cells with extensive and highly branched processes”. Moreover, the “neurite extension and branching” value in assay [3] (10 ng/ml) is given as “dramatic increase”. Further, in assay [3] (10 ng/ml, paradigm 3), the “Astrocyte and oligodendrocyte numbers versus control” value is “not significantly altered”. Further, in assay [3] (10 ng/ml, paradigm 3, 3-21 DIV), the “differentiation and survival of neurons versus control” value is on record as “significantly increased”. For the same molecule, the expression of c-fos result in assay [3] (approximately 100 ng/ml at 1 DIV, 1-24 hours) is “selective increase in the expression of c-fos in neuronal cells”.
